Biological target: protective antigen (PA83, 83 kDa), monomeric (Bacillus anthracis)
Test: SPR

Chain of protective antigen (PA83, 83 kDa), monomeric (Bacillus anthracis) (P13423 30-764 limits assumed): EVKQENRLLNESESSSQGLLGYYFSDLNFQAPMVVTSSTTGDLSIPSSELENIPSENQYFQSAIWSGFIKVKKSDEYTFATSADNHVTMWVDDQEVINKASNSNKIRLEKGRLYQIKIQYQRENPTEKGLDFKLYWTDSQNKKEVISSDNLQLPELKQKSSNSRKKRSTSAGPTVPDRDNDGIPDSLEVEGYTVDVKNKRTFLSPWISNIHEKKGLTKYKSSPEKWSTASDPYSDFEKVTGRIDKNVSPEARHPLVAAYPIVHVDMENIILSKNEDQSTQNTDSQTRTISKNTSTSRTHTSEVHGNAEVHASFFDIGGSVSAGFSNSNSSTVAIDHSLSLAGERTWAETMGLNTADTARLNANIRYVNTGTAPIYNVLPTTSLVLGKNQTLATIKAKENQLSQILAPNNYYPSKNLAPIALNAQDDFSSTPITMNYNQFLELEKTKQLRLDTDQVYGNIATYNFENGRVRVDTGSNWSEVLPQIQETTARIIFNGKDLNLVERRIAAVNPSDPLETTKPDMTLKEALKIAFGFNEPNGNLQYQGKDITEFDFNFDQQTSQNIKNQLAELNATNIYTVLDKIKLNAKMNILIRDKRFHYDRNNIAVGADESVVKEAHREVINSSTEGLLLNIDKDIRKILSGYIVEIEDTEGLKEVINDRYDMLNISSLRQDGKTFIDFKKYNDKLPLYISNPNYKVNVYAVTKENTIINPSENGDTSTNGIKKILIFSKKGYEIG

Substance: CMG2-R40 vWA domain (residues 40-217) (from UniProt P58335 40-217) (domain or fragment)
- Kd: 2.43 nM
- koff: 0.000105 s⁻¹
- kon: 45300 M⁻¹ s⁻¹
